This passage reports EC50 hC3 cleavage and EC50 of hC3 cleavage results from patent US20240018502A1.

Numbering of substitutions follows the chain as printed. In names and notes the source's numbering stands.

The chains are these.
B1: MTSP-1 protease domain I41S/S90P/ins97aV/C122S/Y146E/Q192N/D217V (enzyme)
chain: VVGGTDADEGEWPWQVSLHALGQGHSCGASLISPNWLVSAAHCYIDDRGFRYSDPTQWTAFLGLHDQSQRSAPGVQERRLKRIIPHPFFNDFVTFDYDIALLELEKPAEYSSMVRPISLPDASHVFPAGKAIWVTGWGHTQEGGTGALILQKGEIRVINQTTCENLLPQQITPRMMCVGFLSGGVDSCNGDSGGPLSSVEADGRIFQAGVVSWGVGCAQRNKPGVYTRLPLFRDWIKENTGV
B2: MTSP-1 protease domain Q38M/I41T/D96M/ins97aH/C122S/G151E (enzyme)
chain: B1 chain with Q23M, S26T, P85S, D91M, V93H, E142Y, G146E, N189Q, V215D
B3: MTSP-1 protease domain I41A/F97S/ins97aA/C122S (enzyme)
chain: B1 chain with S26A, P85S, F92S, V93A, E142Y, N189Q, V215D
B4: MTSP-1 protease domain I41A/F97G/ins97aV/T98E/C122S (enzyme)
chain: B1 chain with S26A, P85S, F92G, T94E, E142Y, N189Q, V215D
B5: MTSP-1 protease domain I41S/Y59F/ins97aV/C122S/Q192G (enzyme)
chain: B1 chain with Y44F, P85S, E142Y, N189G, V215D
B6: MTSP-1 protease domain I41S/D60bY/ins97aV/A112V/C122S/Q192G/Q209L (enzyme)
chain: B1 chain with D47Y, P85S, A108V, E142Y, N189G, Q207L, V215D
B7: MTSP-1 protease domain I41S/F97V/ins97aV/T98P/C122S (enzyme)
chain: B1 chain with P85S, F92V, T94P, E142Y, N189Q, V215D
B8: MTSP-1 protease domain Q38H/I41T/D96R/ins97aG/C122S/G151S (enzyme)
chain: B1 chain with Q23H, S26T, P85S, D91R, V93G, E142Y, G146S, N189Q, V215D
B9: MTSP-1 protease domain I41S/ins97aV/C122S/Q192G/Q209L (enzyme)
chain: B1 chain with P85S, E142Y, N189G, Q207L, V215D
B10: MTSP-1 protease domain I41A/F97G/ins97aM/T98L/C122S (enzyme)
chain: B1 chain with S26A, P85S, F92G, V93M, T94L, E142Y, N189Q, V215D
B11: MTSP-1 protease domain I41S/S90T/ins97aV/C122S/Q192V/D217V (enzyme)
chain: B1 chain with P85T, E142Y, N189V
B12: MTSP-1 protease domain I41S/D60bY/ins97aV/T98N/C122S/Q192H (enzyme)
chain: B1 chain with D47Y, P85S, T94N, E142Y, N189H, V215D
B13: MTSP-1 protease domain I41S/Y59F/D60bY/ins97aV/C122S/Q192G (enzyme)
chain: B1 chain with Y44F, D47Y, P85S, E142Y, N189G, V215D
B14: MTSP-1 protease domain I41S/ins97aV/C122S/Q192V/D217V (enzyme)
chain: B1 chain with P85S, E142Y, N189V
B15: MTSP-1 protease domain I41S/S90T/ins97aV/C122S/Q192N/D217V (enzyme)
chain: B1 chain with P85T, E142Y
B16: MTSP-1 protease domain A35T/I41S/Y59F/ins97aV/C122S/Y146F/V183A/Q192G/R235H (enzyme)
chain: B1 chain with A20T, Y44F, P85S, E142F, V178A, N189G, V215D, R233H
B17: MTSP-1 protease domain I41S/Y59F/ins97aV/C122S/Q192A (enzyme)
chain: B1 chain with Y44F, P85S, E142Y, N189A, V215D
B18: MTSP-1 protease domain I41S/F97G/ins97aA/T98P/C122S/Q192A (enzyme)
chain: B1 chain with P85S, F92G, V93A, T94P, E142Y, N189A, V215D
B19: MTSP-1 protease domain Q38H/I41S/ins97aV/A112V/C122S/Q192A/Q209L (enzyme)
chain: B1 chain with Q23H, P85S, A108V, E142Y, N189A, Q207L, V215D
B20: MTSP-1 protease domain I41S/Y59F/F97S/ins97aV/S116Y/C122S/Q192G/D217V (enzyme)
chain: B1 chain with Y44F, P85S, F92S, S112Y, E142Y, N189G
B21: MTSP-1 Q38H/I41S/D60bT/F60eS/Y60gW/D96K/F97G/ins97aV/F99L/C122S/G151H/Q175L/Q192D (enzyme)
chain: VVGGTDADEGEWPWQVSLHALGHGHSCGASLISPNWLVSAAHCYIDTRGSRWSDPTQWTAFLGLHDQSQRSAPGVQERRLKRIISHPFFNKGVTLDYDIALLELEKPAEYSSMVRPISLPDASHVFPAGKAIWVTGWGHTQYGGTHALILQKGEIRVINQTTCENLLPQLITPRMMCVGFLSGGVDSCDGDSGGPLSSVEADGRIFQAGVVSWGDGCAQRNKPGVYTRLPLFRDWIKENTGV
B22: MTSP-1 Q38H/I41S/D60bT/F60eS/Y60gW/D96K/F97G/ins97aV/T98P/C122S/G151H/Q175L/Q192D (enzyme)
chain: B21 chain with T94P, L95F
B23: MTSP-1 Q38H/I41S/D60bT/F60eS/Y60gW/D96K/F97G/ins97aV/T98P/F99L/C122S/Q175L/Q192D (enzyme)
chain: B21 chain with T94P, H146G
B24: MTSP-1 protease domain I41G/F97E/F99L/C122S/Q192A (enzyme)
chain: VVGGTDADEGEWPWQVSLHALGQGHGCGASLISPNWLVSAAHCYIDDRGFRYSDPTQWTAFLGLHDQSQRSAPGVQERRLKRIISHPFFNDETLDYDIALLELEKPAEYSSMVRPISLPDASHVFPAGKAIWVTGWGHTQYGGTGALILQKGEIRVINQTTCENLLPQQITPRMMCVGFLSGGVDSCAGDSGGPLSSVEADGRIFQAGVVSWGDGCAQRNKPGVYTRLPLFRDWIKENTGV
B25: MTSP-1 protease domain I41G/F97L/F99L/C122S/Q192S (enzyme)
chain: B24 chain with E92L, A188S
B26: MTSP-1 protease domain I41A/Y60gW/F99L/C122S/Q175T/Q192A (enzyme)
chain: B24 chain with G26A, Y52W, E92F, Q169T
B27: MTSP-1 protease domain I41A/F97W/T98S/F99L/C122S/Q192A (enzyme)
chain: B24 chain with G26A, E92W, T93S
B28: MTSP-1 protease domain I41T/Y60gL/N95D/D96F/F97S/F99L/C122S/Q175S/Q192A (enzyme)
chain: B24 chain with G26T, Y52L, N90D, D91F, E92S, Q169S
B29: MTSP-1 protease domain I41L/N95D/D96T/F97W/F99L/C122S/Q192A (enzyme)
chain: B24 chain with G26L, N90D, D91T, E92W
B30: MTSP-1 protease domain I41A/Y60gW/N95D/D96F/F97G/F99L/C122S/Q175H/Q192A (enzyme)
chain: B24 chain with G26A, Y52W, N90D, D91F, E92G, Q169H
B31: MTSP-1 protease domain I41S/F97Q/F99L/C122S/Q192S (enzyme)
chain: B24 chain with G26S, E92Q, A188S
B32: MTSP-1 protease domain I41S/T98S/F99L/C122S/Q192A (enzyme)
chain: B24 chain with G26S, E92F, T93S

plasma purified human complement protein C3 (human), sequence (P01024 23-667, chain 1 of 2): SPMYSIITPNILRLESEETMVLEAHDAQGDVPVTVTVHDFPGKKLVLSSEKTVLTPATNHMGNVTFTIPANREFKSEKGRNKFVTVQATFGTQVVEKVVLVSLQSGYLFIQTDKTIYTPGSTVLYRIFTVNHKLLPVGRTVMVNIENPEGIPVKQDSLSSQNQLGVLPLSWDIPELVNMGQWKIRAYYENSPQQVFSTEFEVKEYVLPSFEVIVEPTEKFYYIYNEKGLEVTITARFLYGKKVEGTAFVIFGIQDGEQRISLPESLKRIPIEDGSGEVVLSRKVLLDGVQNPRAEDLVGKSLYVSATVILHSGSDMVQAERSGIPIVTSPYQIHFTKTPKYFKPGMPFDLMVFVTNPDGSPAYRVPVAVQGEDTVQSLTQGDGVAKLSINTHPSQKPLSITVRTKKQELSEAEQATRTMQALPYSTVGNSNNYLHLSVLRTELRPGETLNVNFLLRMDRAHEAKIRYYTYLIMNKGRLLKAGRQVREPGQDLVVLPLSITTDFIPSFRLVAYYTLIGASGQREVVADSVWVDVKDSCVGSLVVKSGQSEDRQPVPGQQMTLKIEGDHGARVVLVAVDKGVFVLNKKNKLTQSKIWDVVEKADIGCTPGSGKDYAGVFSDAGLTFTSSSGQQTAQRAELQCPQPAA
plasma purified human complement protein C3 (human), sequence (P01024 672-1663, chain 2 of 2): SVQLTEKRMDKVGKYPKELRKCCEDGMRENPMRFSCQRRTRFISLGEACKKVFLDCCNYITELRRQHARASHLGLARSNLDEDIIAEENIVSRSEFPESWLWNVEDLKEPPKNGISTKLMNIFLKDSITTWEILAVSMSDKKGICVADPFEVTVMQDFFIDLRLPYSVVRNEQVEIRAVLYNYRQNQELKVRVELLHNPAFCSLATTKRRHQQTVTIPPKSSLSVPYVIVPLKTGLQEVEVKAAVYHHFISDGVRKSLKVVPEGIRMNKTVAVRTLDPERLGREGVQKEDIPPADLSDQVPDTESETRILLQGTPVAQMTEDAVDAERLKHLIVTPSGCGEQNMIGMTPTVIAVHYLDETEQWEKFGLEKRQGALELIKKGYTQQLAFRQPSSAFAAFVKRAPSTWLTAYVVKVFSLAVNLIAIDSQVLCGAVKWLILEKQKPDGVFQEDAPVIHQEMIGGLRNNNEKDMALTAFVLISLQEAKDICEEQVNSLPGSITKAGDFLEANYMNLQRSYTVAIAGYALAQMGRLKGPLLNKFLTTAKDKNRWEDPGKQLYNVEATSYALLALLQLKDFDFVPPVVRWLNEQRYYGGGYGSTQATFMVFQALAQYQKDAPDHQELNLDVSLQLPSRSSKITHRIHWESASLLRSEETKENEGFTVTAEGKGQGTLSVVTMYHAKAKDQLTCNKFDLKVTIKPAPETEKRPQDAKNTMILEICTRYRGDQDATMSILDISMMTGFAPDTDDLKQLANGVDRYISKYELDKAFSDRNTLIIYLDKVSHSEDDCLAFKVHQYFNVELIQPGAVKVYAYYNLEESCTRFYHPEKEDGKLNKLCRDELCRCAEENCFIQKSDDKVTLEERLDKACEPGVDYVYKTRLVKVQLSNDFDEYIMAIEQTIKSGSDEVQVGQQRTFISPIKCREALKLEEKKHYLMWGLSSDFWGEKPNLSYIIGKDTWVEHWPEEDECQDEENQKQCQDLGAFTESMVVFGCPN

This assay concerns the target plasma purified human complement protein C3 (human) (UniProt P01024). The assay is described as follows: cell-based or functional assay.
Consider B1, for which the EC50 hC3 cleavage worked out at 6.47 nM. B2 returned an EC50 hC3 cleavage of 19.1 nM. The same measure, in the same setting: the result for B3 reads 19.8 nM.

As for B4, the EC50 hC3 cleavage worked out at 18.1 nM. The molecule B5 gave an EC50 hC3 cleavage of 25.6 nM. In turn, B6 returned an EC50 hC3 cleavage of 4.76 nM. Take B7: the EC50 hC3 cleavage stood at 30.9 nM.

The molecule B8 displayed an EC50 hC3 cleavage of 54.1 nM. Still for that read-out and setting: the result for B9 reads 33.4 nM; that for B10, 40.1 nM.

Turning to B11, the EC50 hC3 cleavage is 10.5 nM. The molecule B12 yielded an EC50 hC3 cleavage of 8.1 nM. B13 showed an EC50 hC3 cleavage of 5.24 nM. For B14, the EC50 hC3 cleavage came to 11 nM. For the molecule B15, the EC50 hC3 cleavage stood at 13.4 nM.

On to B16, for which the EC50 hC3 cleavage was 18.4 nM. B17 displayed an EC50 hC3 cleavage of 16.6 nM. Molecule B18 came in with an EC50 hC3 cleavage of 57.2 nM. Regarding B19, the EC50 hC3 cleavage stood at 10.9 nM. B20 showed an EC50 hC3 cleavage of 8.22 nM. B21 had an EC50 of hC3 cleavage of 9.83 nM.

B22 returned an EC50 of hC3 cleavage of 18.3 nM. B23: the EC50 of hC3 cleavage stood at 5.25 nM. Turning to B24, the EC50 hC3 cleavage stood at 30.1 nM. B25 returned an EC50 hC3 cleavage of 41.4 nM. Still for that read-out and setting: the result for B26 reads 17.6 nM; that for B27, 27 nM. As to B28, the EC50 hC3 cleavage turned out to be 247 nM. B29 had an EC50 hC3 cleavage of 62.6 nM. Take B30: the EC50 hC3 cleavage worked out at 17.5 nM.

With B31, the EC50 hC3 cleavage is 53.5 nM. In turn, B32 gave an EC50 hC3 cleavage of 17.4 nM.
